Data reported in paper PMC10015101.

What was measured:
[1] = biological target: Rf1 soluble spike ectodomain, stabilised (2P, GSAS linker, T4 fibritin trimerization motif) (bat sarbecovirus Rf1 | bacteriophage T4) (UniProt Q0QDZ0); experiment: SEC
[2] = biological target: SARS-CoV-1 soluble spike ectodomain, stabilised (2P, GSAS linker, T4 fibritin trimerization motif) (SARS-CoV-1 | bacteriophage T4) (UniProt P59594); experiment: SEC

Substance	stoichiometry N [1]	stoichiometry N [2]
Rf1 soluble spike ectodomain, stabilised (2P, GSAS linker, T4 fibritin trimerization motif) (from UniProt Q0QDZ0 1-1176) (domain or fragment)	3	
SARS-CoV-1 soluble spike ectodomain, stabilised (2P, GSAS linker, T4 fibritin trimerization motif) (from UniProt P59594 14-1190) (domain or fragment)		3
